These results are taken from patent US7132278B2, “PAS kinase” (Board of Regents, The University of Texas System, priority 2001, dated 2006).

Common to all, as to assay: PASK kinase assay, 32P incorporation into AMARA peptide substrate
The test system of series [1] is AMARA peptide. Format: biochemical, human. As to conditions: for Catalytic activity: baculovirus-expressed enzyme variant; for Vmax / Km: Pre-phosphorylated enzyme; for Vmax: peptide substrate; for Km: peptide substrate 0.06–1 mM. On the procedure:
(§1) Biochemical properties of the Pask enzyme. A recombinant baculovirus was engineered to overexpress human PASK enzyme in cultured insect cells. The enzyme was expressed as a fusion with a His6 tag at its amino terminus such that the recombinant polypeptide could be purified by Ni-affinity chromatography. Routine enzyme preparations were harvested from 0.8 liter of cultured Sf-9 cells. Cells were lysed by dounce homogenization in 50 mM Tris-HCl, pH 8.0, 100 mM NaCl, 0.04% β-mercaptoethanol (“lysis buffer”) and spun at 100,000×G for one hour to remove insoluble debris. Soluble material (˜50 ml) was then applied to a 3 ml bed volume of Ni-affinity resin. Following application and 50× column volume wash, bound material was eluted with storage buffer (50 mM HEPES, pH 7.4, 100 mM NaCl, 1 mM DTT, 1 mM EDTA) supplemented with 250 mM imidazole. Eluted material was sequentially subjected to Mono-Q, anion-exchange chromatography, and eluted with increasing NaCl concentration. Fractions were evaluated by SDS-PAGE to identify PASK enriched fractions, pooled and dialyzed against storage buffer supplemented with 10% glycerol. Typical enzyme preparations yield 0.5 mg of intact PASK enzyme judged to be greater than 95% pure by visual inspection of Coomassie-stained SDS-PAGE gels.
(§2) Kinetic data were used to characterize the activities of PASK enzyme samples derived without modification from baculovirus and following pre-phosphorylation in the presence of ATP. Enzyme activity was monitored using a synthetic substrate bearing the sequence NH2-[…]-CO2H (AMARA peptide, SEQ ID NO:9). The serine residue in this peptide is known to be phosphorylated by both AMPK and Snf1 [2], both of which are exceedingly similar in primary amino acid sequence to the catalytic domain of PASK. The three arginine residues located at the carboxyl terminus of the AMARA peptide allow avid binding to phosphocellulose paper, thereby facilitating quantitation of ^32P incorporation catalyzed by PASK from [γ-^32P]ATP. […] Moreover, lambda phosphatase treatment generated an enzyme which had 7-fold lower activity than the unmodified enzyme, and this treatment was fully reversible by allowing the enzyme to autophosphorylate in the presence of ATP.
(§3) PASK concentrations (0.5–2 μg/ml) were determined to have linear rates with respect to protein concentration and time. Kinetic constants were determined using peptide substrate concentrations between 0.06–1 mM. The data were fit to a non-linear Michaelis-Menten equation using the GraphPad Prism 2.0 program. Vmax values given are μmol/min/mg. NS indicates an SE less than 0.05.

In series [2] the target is T1, AMARA peptide (Homo sapiens, UniProt Q96RG2, F1266C/Y899H).
T1 construct: Compounds are checked for effects on both full length and truncated versions of PASK; His6 (N); made in house; host or cells: baculovirus-infected Sf-9 insect cells
T1 sequence (Q96RG2 whole entry Y899H/F1266C, the tested form may be a part): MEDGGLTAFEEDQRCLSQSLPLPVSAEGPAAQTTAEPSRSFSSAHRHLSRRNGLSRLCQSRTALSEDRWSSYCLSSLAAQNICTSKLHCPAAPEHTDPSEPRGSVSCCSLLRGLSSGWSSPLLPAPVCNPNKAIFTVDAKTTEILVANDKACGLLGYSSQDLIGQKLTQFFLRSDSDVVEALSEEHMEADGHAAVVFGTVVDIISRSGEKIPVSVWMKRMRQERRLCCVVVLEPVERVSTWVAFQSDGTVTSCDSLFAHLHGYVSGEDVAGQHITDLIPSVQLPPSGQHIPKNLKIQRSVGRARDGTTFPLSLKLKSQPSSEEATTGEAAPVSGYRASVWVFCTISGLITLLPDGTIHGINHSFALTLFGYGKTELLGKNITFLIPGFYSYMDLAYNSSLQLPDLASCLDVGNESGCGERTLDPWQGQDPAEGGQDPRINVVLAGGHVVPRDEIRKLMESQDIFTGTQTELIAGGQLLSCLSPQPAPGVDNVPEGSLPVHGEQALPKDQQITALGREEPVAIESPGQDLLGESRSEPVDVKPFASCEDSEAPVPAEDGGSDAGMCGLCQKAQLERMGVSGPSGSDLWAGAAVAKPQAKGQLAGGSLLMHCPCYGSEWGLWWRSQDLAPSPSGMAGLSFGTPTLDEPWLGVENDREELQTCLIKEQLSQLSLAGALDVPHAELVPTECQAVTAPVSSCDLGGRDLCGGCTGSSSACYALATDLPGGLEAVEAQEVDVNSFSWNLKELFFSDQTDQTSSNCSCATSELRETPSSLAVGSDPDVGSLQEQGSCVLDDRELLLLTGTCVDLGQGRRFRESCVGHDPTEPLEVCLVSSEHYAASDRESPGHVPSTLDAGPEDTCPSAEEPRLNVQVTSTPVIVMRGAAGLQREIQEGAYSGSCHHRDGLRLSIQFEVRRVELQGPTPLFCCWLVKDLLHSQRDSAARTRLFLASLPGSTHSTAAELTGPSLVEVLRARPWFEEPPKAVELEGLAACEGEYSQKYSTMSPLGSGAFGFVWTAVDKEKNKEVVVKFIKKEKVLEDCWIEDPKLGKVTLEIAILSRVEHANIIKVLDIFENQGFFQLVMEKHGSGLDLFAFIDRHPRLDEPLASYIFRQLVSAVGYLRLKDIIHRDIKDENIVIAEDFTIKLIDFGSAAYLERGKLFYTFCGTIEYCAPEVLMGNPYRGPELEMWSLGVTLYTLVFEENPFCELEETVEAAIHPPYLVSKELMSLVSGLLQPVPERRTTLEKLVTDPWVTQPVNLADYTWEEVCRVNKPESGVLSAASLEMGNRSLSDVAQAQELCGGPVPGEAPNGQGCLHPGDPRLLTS
Format: biochemical. As to conditions: Untreated enzyme. The procedure: as §1, §2, §3

In series [3] the target is T2, AMARA peptide (Homo sapiens, UniProt Q96RG2, F1266C).
T2 construct: Compounds are checked for effects on both full length and truncated versions of PASK; His6 (N); made in house; host or cells: baculovirus-infected Sf-9 insect cells
The format is biochemical. As to conditions: truncated variant vs native enzyme. The procedure:
as §1, §2, §3

Where a chain is given by its changes, count along the chain named. Names may count otherwise.

One may read the Vmax as the top rate of the reaction or transport when substrate is in excess. For orientation: Km means the concentration of substrate that gives half-maximal velocity.

B1: K1028R: dominant negative human PASK, conserved lysine in ATP-binding region mutated to arginine (protein, UniProt Q96RG2 1-1323, looked up, variant K1028R)
PAS domain-containing …: MEDGGLTAFEEDQRCLSQSLPLPVSAEGPAAQTTAEPSRSFSSAHRHLSRRNGLSRLCQSRTALSEDRWSSYCLSSLAAQNICTSKLHCPAAPEHTDPSEPRGSVSCCSLLRGLSSGWSSPLLPAPVCNPNKAIFTVDAKTTEILVANDKACGLLGYSSQDLIGQKLTQFFLRSDSDVVEALSEEHMEADGHAAVVFGTVVDIISRSGEKIPVSVWMKRMRQERRLCCVVVLEPVERVSTWVAFQSDGTVTSCDSLFAHLHGYVSGEDVAGQHITDLIPSVQLPPSGQHIPKNLKIQRSVGRARDGTTFPLSLKLKSQPSSEEATTGEAAPVSGYRASVWVFCTISGLITLLPDGTIHGINHSFALTLFGYGKTELLGKNITFLIPGFYSYMDLAYNSSLQLPDLASCLDVGNESGCGERTLDPWQGQDPAEGGQDPRINVVLAGGHVVPRDEIRKLMESQDIFTGTQTELIAGGQLLSCLSPQPAPGVDNVPEGSLPVHGEQALPKDQQITALGREEPVAIESPGQDLLGESRSEPVDVKPFASCEDSEAPVPAEDGGSDAGMCGLCQKAQLERMGVSGPSGSDLWAGAAVAKPQAKGQLAGGSLLMHCPCYGSEWGLWWRSQDLAPSPSGMAGLSFGTPTLDEPWLGVENDREELQTCLIKEQLSQLSLAGALDVPHAELVPTECQAVTAPVSSCDLGGRDLCGGCTGSSSACYALATDLPGGLEAVEAQEVDVNSFSWNLKELFFSDQTDQTSSNCSCATSELRETPSSLAVGSDPDVGSLQEQGSCVLDDRELLLLTGTCVDLGQGRRFRESCVGHDPTEPLEVCLVSSEHYAASDRESPGHVPSTLDAGPEDTCPSAEEPRLNVQVTSTPVIVMRGAAGLQREIQEGAYSGSCYHRDGLRLSIQFEVRRVELQGPTPLFCCWLVKDLLHSQRDSAARTRLFLASLPGSTHSTAAELTGPSLVEVLRARPWFEEPPKAVELEGLAACEGEYSQKYSTMSPLGSGAFGFVWTAVDKEKNKEVVVRFIKKEKVLEDCWIEDPKLGKVTLEIAILSRVEHANIIKVLDIFENQGFFQLVMEKHGSGLDLFAFIDRHPRLDEPLASYIFRQLVSAVGYLRLKDIIHRDIKDENIVIAEDFTIKLIDFGSAAYLERGKLFYTFCGTIEYCAPEVLMGNPYRGPELEMWSLGVTLYTLVFEENPFCELEETVEAAIHPPYLVSKELMSLVSGLLQPVPERRTTLEKLVTDPWVTQPVNLADYTWEEVFRVNKPESGVLSAASLEMGNRSLSDVAQAQELCGGPVPGEAPNGQGCLHPGDPRLLTS
On to B1, for which the Catalytic activity result in series [1] was “completely inactive”.

B2: S1273-1289A: PASK mutant, all five serines simultaneously changed to alanine (protein)
chain: B1 PAS domain-containing … with Y899H, R1028K, F1266C, S1273A, S1277A, S1280A, S1287A, S1289A
modifications: left off: small tags and cut ends
notes: PASK mutant, all five serines simultaneously changed to alanine
On to B2, for which, in series [1], the Vmax is 0.1 µmol/min/mg and the Km is 200 µM.

B3: wildtype: His6-tagged human PASK enzyme expressed in baculovirus-infected Sf-9 cells (protein)
chain: B1 PAS domain-containing … with Y899H, R1028K, F1266C
modifications: left off: small tags and cut ends
notes: His6-tagged human PASK enzyme expressed in baculovirus-infected Sf-9 cells
Consider B3, for which the Vmax in series [2] (peptide substrate) amounted to 0.1 µmol/min/mg; in series [1], 0.2 µmol/min/mg. Besides, the Km in series [2] (peptide substrate 0.06–1 mM) was determined as 1.3 mM; in series [1], 200 µM.

B4: T1165A: PASK mutant, threonine residue 1165 changed to alanine (protein, UniProt Q96RG2 1-1323, looked up, variant T1165A)
PAS domain-containing …: B1 PAS domain-containing … with R1028K, T1165A
With B4, in series [1], the Catalytic activity entry was “Catalytically inactive”.

B5: S1149A: PASK mutant, serine residue 1149 changed to alanine (protein)
chain: B1 PAS domain-containing … with Y899H, R1028K, S1149A, F1266C
modifications: left off: small tags and cut ends
notes: PASK mutant, serine residue 1149 changed to alanine
Consider B5, for which, in series [1], the Vmax turned out to be 0.1 µmol/min/mg and the Km was found to be 600 µM.

B6: S1273,77,80A: PASK mutant, serine residues 1273, 1277 and 1280 changed to alanine (protein)
chain: B1 PAS domain-containing … with Y899H, R1028K, F1266C, S1273A, S1277A, S1280A
modifications: left off: small tags and cut ends
notes: PASK mutant, serine residues 1273, 1277 and 1280 changed to alanine
Take B6: in series [1], the Vmax was 0.4 µmol/min/mg and the Km turned out to be 300 µM.

B7: S1287,89A: PASK mutant, serine residues 1287 and 1289 changed to alanine (protein)
chain: B1 PAS domain-containing … with Y899H, R1028K, F1266C, S1287A, S1289A
modifications: left off: small tags and cut ends
notes: PASK mutant, serine residues 1287 and 1289 changed to alanine
On to B7, for which, in series [1], the Vmax was determined as 0.1 µmol/min/mg and the Km is 200 µM.

B8: PASK ΔN: truncated human PASK variant lacking both PAS domains, 948 amino-terminal residues removed, His6 tag (protein)
chain: SLPGSTHSTAAELTGPSLVEVLRARPWFEEPPKAVELEGLAACEGEYSQKYSTMSPLGSGAFGFVWTAVDKEKNKEVVVKFIKKEKVLEDCWIEDPKLGKVTLEIAILSRVEHANIIKVLDIFENQGFFQLVMEKHGSGLDLFAFIDRHPRLDEPLASYIFRQLVSAVGYLRLKDIIHRDIKDENIVIAEDFTIKLIDFGSAAYLERGKLFYTFCGTIEYCAPEVLMGNPYRGPELEMWSLGVTLYTLVFEENPFCELEETVEAAIHPPYLVSKELMSLVSGLLQPVPERRTTLEKLVTDPWVTQPVNLADYTWEEVCRVNKPESGVLSAASLEMGNRSLSDVAQAQELCGGPVPGEAPNGQGCLHPGDPRLLTS
modifications: left off: small tags and cut ends
notes: truncated human PASK variant lacking both PAS domains, 948 amino-terminal residues removed, His6 tag
Consider B8, for which the “catalytic rate constant (Vmax) higher than the native enzyme” value in series [3] was 18 fold. Also, in series [1], the Vmax amounted to 2.8 µmol/min/mg and the Km came out at 300 µM.
